Test system: IGF-1
Test: Plasma IGF-1 level in hypophysectomised female Wistar rats (radioimmunoassay)
Format: in vivo
Conditions: dose of 100 μg/rat
Experimental: In vivo experiments performed in the context of the present invention were carried out on 19 batches of hypophysectomised female rats of the Wistar strain, each batch comprising 5 rats. These animals were hypophysectomized when 4 weeks old and then kept under observation for one week. During an additional week of observation, the animals were weighed and those having gained more than 5 grams […] were discarded. In fact, it was assumed that the hypophysectomy of these animals was incomplete. They are thus not suitable for use in the framework of the present experiments.
Each animal selected receives a T4 thyroid hormone and cortisone replacement treatment. These hormones are administered subcutaneously each day at 50 μg/100 g body weight in the case of cortisone and 1 μg/100 g body weight in the case of T4. Usually a slight weight gain is observed following the injection of these hormones. This hormone supplementation treatment is administered for one week during which the animals continue to be weighed daily. These animals are from then on suitable for use in a comparative evaluation of the somatogenic activity of bGH incubated with or without different peptide constructions having the sequence 104-113 or the sequence 35-53 in the case of the GH peptide described in EP 284406. […]

B1: bovine growth hormone (protein)
chain: AFPAMSLSGLFANAVLRAQHLHQLAADTFKEFERTYIPEGQRYSIQNTQVAFCFSETIPAPTGKNEAQQKSDLELLRISLLLIQSWLGPLQFLSRVFTNSLVFGTSDRVYEKLKDLEEGILALMRELEDGTPRAGQILKQTYDKFDTNMRSDDALLKNYGLLSCFRKDLHKTETYLRVMKCRRFGEASCAF
IGF level relative to baseline levels in control hypophysectomized animals: eight times higher than the baseline levels | mean IGF levels (hypophysectomized rats): 60 ng/mL
